Results taken from patent US20210238283A1 (Y BIOLOGICS, published 2021).
Where two headings read alike, the source gives them in different places.

T1: recombinant human LAG-3-his (#16498-H08H, Sino Biological Inc.) (human, UniProt P18627 23-450)
T1 construct: Bought; also called LAG-3-His (WT); not shown: His tag at the carboxy terminal
T1 sequence (looked up): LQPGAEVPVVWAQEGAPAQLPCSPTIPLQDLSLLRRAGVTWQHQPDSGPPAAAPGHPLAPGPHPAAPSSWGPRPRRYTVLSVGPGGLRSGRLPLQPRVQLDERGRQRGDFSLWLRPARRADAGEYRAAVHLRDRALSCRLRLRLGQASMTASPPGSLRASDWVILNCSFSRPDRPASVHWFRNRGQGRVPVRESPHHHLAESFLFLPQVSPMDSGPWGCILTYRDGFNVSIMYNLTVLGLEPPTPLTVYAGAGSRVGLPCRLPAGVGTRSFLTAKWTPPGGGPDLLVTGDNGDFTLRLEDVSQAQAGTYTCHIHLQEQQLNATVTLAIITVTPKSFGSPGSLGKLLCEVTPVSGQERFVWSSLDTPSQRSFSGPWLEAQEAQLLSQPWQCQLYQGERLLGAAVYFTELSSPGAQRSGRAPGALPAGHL

T2: human LAG-3 overexpressed on cells (human, UniProt P18627 23-525)
T2 construct: whole, on cells; also called HEK293E-hLAG3; hLAG3 (Human)
T2 sequence (looked up): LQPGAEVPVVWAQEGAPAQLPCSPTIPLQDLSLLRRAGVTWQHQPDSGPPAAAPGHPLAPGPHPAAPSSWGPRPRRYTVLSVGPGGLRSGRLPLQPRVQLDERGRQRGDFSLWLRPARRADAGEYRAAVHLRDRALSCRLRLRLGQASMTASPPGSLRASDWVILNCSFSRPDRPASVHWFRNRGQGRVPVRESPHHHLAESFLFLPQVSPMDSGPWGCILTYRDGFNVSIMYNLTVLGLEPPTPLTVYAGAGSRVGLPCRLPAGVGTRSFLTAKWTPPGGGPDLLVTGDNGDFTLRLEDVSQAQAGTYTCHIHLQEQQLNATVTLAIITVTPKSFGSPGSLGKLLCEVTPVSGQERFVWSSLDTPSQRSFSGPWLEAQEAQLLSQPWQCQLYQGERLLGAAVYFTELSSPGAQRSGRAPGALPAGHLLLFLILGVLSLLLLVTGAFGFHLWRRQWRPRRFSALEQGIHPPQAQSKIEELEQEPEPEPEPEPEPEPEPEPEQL

T3: mouse LAG-3 overexpressed on HEK293E cells (mouse, UniProt Q61790 24-521)
T3 construct: whole, on cells; also called HEK293E-mLAG3; mLAG3 (Mouse)
T3 sequence (looked up): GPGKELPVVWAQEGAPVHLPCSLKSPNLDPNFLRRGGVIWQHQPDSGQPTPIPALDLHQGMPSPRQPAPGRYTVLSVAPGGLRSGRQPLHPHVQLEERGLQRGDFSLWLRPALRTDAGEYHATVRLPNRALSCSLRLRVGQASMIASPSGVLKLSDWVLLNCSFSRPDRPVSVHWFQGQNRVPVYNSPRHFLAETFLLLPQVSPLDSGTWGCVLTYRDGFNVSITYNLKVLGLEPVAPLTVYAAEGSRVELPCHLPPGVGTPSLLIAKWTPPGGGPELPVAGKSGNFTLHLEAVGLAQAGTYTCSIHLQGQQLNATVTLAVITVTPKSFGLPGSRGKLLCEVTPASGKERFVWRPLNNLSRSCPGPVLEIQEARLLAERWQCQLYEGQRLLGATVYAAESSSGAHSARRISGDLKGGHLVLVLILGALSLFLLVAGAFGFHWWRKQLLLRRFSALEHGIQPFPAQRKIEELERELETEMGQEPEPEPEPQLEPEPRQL


Legend:
[1] = biological target: T1, recombinant human LAG-3-his …; test: scFv phage ELISA on coated antigen, A490
[2] = biological target: T2, human LAG-3 overexpressed on cells; test: flow cytometry, HEK293E cells overexpressing LAG-3, antibody 2 µg/ml
Procedure: (§1) After that, the cells were washed three times with PBS containing 2% FBS and then subjected to the reaction for 30 minutes at 4° C. with anti-human IgG antibody (#FI-3000, Vectorlabs) linked with FITC fluorescent. The cells were washed by the same washing process as above followed by suspension in 0.2 ml PBS containing 2% FBS. The cells were then analyzed by FACSCanto II flow cytometer.

[3] = biological target: T3, mouse LAG-3 overexpressed on HEK293E …; test: flow cytometry, HEK293E cells overexpressing mouse LAG-3
Procedure: as §1

[4] = biological target: T2, human LAG-3 overexpressed on cells; test: cell-based or functional assay
[5] = biological target: T1, recombinant human LAG-3-his …; test: scFv phage ELISA on coated antigen, A490; remark: listed apart in the source
[6] = biological target: T3, mouse LAG-3 overexpressed on HEK293E …; test: flow cytometry, HEK293E cells overexpressing LAG-3, antibody 2 µg/ml
Procedure: as §1

binding result [1]	binding result [2]	binding result [3]	EC50 (µg/ml), LAG3/MHC class II Blockade bioassay [4]	binding result [5]	binding result [6]	Binder
binds	binds	no binding (tested: 2 µg/ml)				LAG3-1E09_AM_2E04 (antibody, V domains shown, Tested as full IgG) VH: EVQLVESGGDLVKPGGSLRLSCAASGFSFNDHYMNWVRQAPGKGLEWVAYIDTSATYIYYADSVKGRFTISRDNAKNSLYLQMNSLRAEDTAVYYCARDNWGSLDYWGQGTLVTVSS VL: DIQMTQSPSSLSASVGDRVTIICRASQSISNYLNWYQQEPGKAPKLLIYDASNLESGVPSRFSGSGSGTDFTLTISSLQPEDFATYYCQQSYSTPYTFGQGTKVEIK
		no binding (tested: 2 µg/ml)	0.284 µg/mL			LAG3-1E09_LS_1H04 (antibody, V domains shown, Tested as full IgG) VH: EVQLVESGGDLVKPGGSLRLSCAASGFSFSDHYMNWIRQAPGKGLEWVAYIDTSATYIYYADSVKGRFTISRDNAKNSLYLQMNSLRAEDTAVYYCARDNWGSLDYWGQGTLVTVSS VL: DIQMTQSPSSLSASAGDRVTITCQASQDIRNSLSWYQQKPGKAPKLLIYDASNLETGVPSRFSGSGSGTYFTFTISSLQPEDFATYYCQQYDNVPVTFGGGTKLEIK
	binds	no binding (tested: 2 µg/ml)				LAG3-1E09_AM_1E09 (antibody, V domains shown, Tested as full IgG) VH: EVQLVESGGDLVKPGGSLRLSCAASGFSFSDHYMNWIRQAPGKGLEWVAYIDTSATYIYYADSVKGRFTISRDNAKNSLYLQMNSLRAEDTAVYYCARDNWGSLDYWGQGTLVTVSS VL: DIQMTQSPATLSVSPGERATLSCRASQSVMNNLAWYQQKPGQAPRLLIYDASNRATGIPARFSGSGSGTDFTLTISRLEPEDFAVYYCEQYVRSPYTFGQGTKLDIK
		no binding (tested: 2 µg/ml)	1.82 µg/mL			LAG3-1E09_AM_1B03 (antibody, V domains shown, Tested as full IgG) VH: EVQLVESGGDLVQPGGSLRLSCAASGFSFNDHYMNWIRQAPGKGLEWVAYIDTSATYIYYADSVKGRFTISRDNAKNSLYLQMNSLRAEDTAVYYCARDNWGSLDYWGQGTLVTVSS VL: DIQMTQSPSSLSASVGDRVTMTCQASQDVSNYLNWYQQKPGKAPKLLIYDASNLEIGVPSRFSGSGSGTDFTFTISSLQPEDTATYYCQQYDHLPPYTFGQGTKLEIK
	binds	no binding (tested: 2 µg/ml)				LAG3-1E09_FR_1A06 (antibody, V domains shown, Tested as full IgG) VH: EVQLVESGGGLVKPGGSLRLSCAASGFSFSDHYMNWVRQAPGKGLEWVAYIDTSATYIYYADSVKGRFTISRDNAKNSLYLQMNSLRAEDTAVYYCARDNWGSLDYWGQGTLVTVSS VL: DIQMTQSPGTLSMSPGEKATLSCRASQTVTTNLAWYQQKSGQAPRLLIYDASTRATGVPDRFSGSGSGTDFTLTISRLEPEDFAVYYCQQYGSSPYTFGQGTKLDIK
		no binding (tested: 2 µg/ml)	0.448 µg/mL			LAG3-1E09_AM_1H07 (antibody, V domains shown, Tested as full IgG) VH: EVQLVESGGDLVQPGGSLRLSCAASGFSFNDHYMNWVRQAPGKGLEWVAYIDTSATYIYYADSVKGRFTISRDNAKNSLYLQMNSLRAEDTAVYYCARDNWGSLDYWGQGTLVTVSS VL: DIQMTQSPSSLSASVGDRVTITCQASQDISNYLNWYQQKPGKAPKLLIYEASSLESGVPSRFSGSGSGTEFTLTINSLQPEDFATYYCQQSYSTPFAFGPGTKVEIK
	binds			binds	binds	LAG3-1E09_FR_1E10 (antibody, V domains shown, Tested as full IgG) VH: EVQLVESGGGLVKPGGSLRLSCAASGFSFSDHYMNWVRQAPGKGLEWVAYIDTSATYIYYADSVKGRFTISRDNAKNSLYLQMNSLRAEDTAVYYCARDNWGSLDYWGQGTLVTVSS VL: DIQMTQSPSSLSASVGDRVIITCQASQDITNYLNWYQQKPGKAPKLLIYDASNLETGVPSRFTGSGSGTDFTFTISSLQPEDIATYHCQQSYSTPPYTFGQGTKLEIK
	binds	no binding (tested: 2 µg/ml)				LAG3-1E09_LS_1A10 (antibody, V domains shown, Tested as full IgG) VH: EVQLVESGGDLVKPGGSLRLSCAASGFSFSDHYMNWIRQAPGKGLEWVAYIDTSATYIYYADSVKGRFTISRDNAKNSLYLQMNSLRAEDTAVYYCARDNWGSLDYWGQGTLVTVSS VL: not shown
	binds	no binding (tested: 2 µg/ml)		binds		LAG3-1E09_FR_1E09 (antibody, V domains shown, Tested as full IgG) VH: EVQLVESGGGLVKPGGSLRLSCAASGFSFSDHYMNWIRQAPGKGLEWVAYIDTSATYIYYADSVKGRFTISRDNAKNSLYLQMNSLRAEDTAVYYCARDNWGSLDYWGQGTLVTVSS VL: DIQMTQSPSSLSASVGDRVTITCQASQDISNYLNWYQQKPGKAPNLLIYDASNLETGVPSRFSGSGSGTDFALTISSLQPEDFATYYCQQSDSTPITFGQGTRLDIK
